Here are results for three molecules from publication PMC7102968, “The complex formed between a synthetic RNA aptamer and the transcription repressor TetR is a structural and functional twin of the operator DNA–TetR regulator complex”.

In data set [1] the target is T1, TetR(BD') (UniProt P04483 1-187+P0ACT4:188-208, C68S;C88N;C121T;C144S;internal_change). The experiment in a line: ITC; n=1.17; ITC: 20 mM potassium phosphate pH 7.4, 50 mM NaCl, 25 C; EMSA: 50 mM Tris-HCl pH 8.0, 10 mM MgCl2, 25 mM NaCl, 25 ug/ml yeast tRNA, room temperature; SEC buffer not given (preparative complex: 20 mM Tris-HCl pH 8.0, 150 mM NaCl, 5 mM MgCl2). The settings on record: protein: recombinant; chain copies: 2; blunt. A general note: In ITC the heat of successive injections is recorded.

Data set [2] deals with T2, TetR-Q38A (UniProt P04483 1-187+P0ACT4:188-208, Q38A;C68S;C88N;C121T;C144S;internal_change). The experiment in a line: SEC; ITC: 20 mM potassium phosphate pH 7.4, 50 mM NaCl, 25 C; EMSA: 50 mM Tris-HCl pH 8.0, 10 mM MgCl2, 25 mM NaCl, 25 ug/ml yeast tRNA, room temperature; SEC buffer not given (preparative complex: 20 mM Tris-HCl pH 8.0, 150 mM NaCl, 5 mM MgCl2). The settings on record: protein: recombinant; chain copies: 2; blunt. (In gel filtration, larger molecules generally elute earlier.)

Data set [3] addresses T3, TetR-R28A (UniProt P04483 1-187+P0ACT4:188-208, R28A;C68S;C88N;C121T;C144S;internal_change). Described as above. The settings on record: protein: recombinant; chain copies: 2; blunt.
Data set [4] concerns the target TetR-Y42A (UniProt P04483 1-187+P0ACT4:188-208, Y42A;C68S;C88N;C121T;C144S;internal_change). Described as above. The settings on record: protein: recombinant; chain copies: 2; blunt.
Data set [5] addresses T3, TetR-R28A. The experiment in a line: EMSA; 10 mM Mg2+, up to 1000 nM TetR; ITC: 20 mM potassium phosphate pH 7.4, 50 mM NaCl, 25 C; EMSA: 50 mM Tris-HCl pH 8.0, 10 mM MgCl2, 25 mM NaCl, 25 ug/ml yeast tRNA, room temperature; SEC buffer not given (preparative complex: 20 mM Tris-HCl pH 8.0, 150 mM NaCl, 5 mM MgCl2). The settings on record: protein: recombinant, chain copies: 2, label: 5'-32P in EMSA, none in ITC, crystal, hairpin, L-shaped, 43 nt, stems P1 and P2. (In general: In EMSA bound probe runs differently from free probe, usually more slowly.)

Data set [6] concerns the target T2, TetR-Q38A. The data set is described as follows: ITC; n=1.10; ITC: 20 mM potassium phosphate pH 7.4, 50 mM NaCl, 25 C; EMSA: 50 mM Tris-HCl pH 8.0, 10 mM MgCl2, 25 mM NaCl, 25 ug/ml yeast tRNA, room temperature; SEC buffer not given (preparative complex: 20 mM Tris-HCl pH 8.0, 150 mM NaCl, 5 mM MgCl2). To be noted: protein: recombinant, chain copies: 2, label: 5'-32P in EMSA, none in ITC, crystal, hairpin, L-shaped, 43 nt, stems P1 and P2.

In data set [7] the target is T1, TetR(BD'). The data set is described as follows: EMSA; 10 mM Mg2+, 25 ug/ml yeast tRNA; ITC: 20 mM potassium phosphate pH 7.4, 50 mM NaCl, 25 C; EMSA: 50 mM Tris-HCl pH 8.0, 10 mM MgCl2, 25 mM NaCl, 25 ug/ml yeast tRNA, room temperature; SEC buffer not given (preparative complex: 20 mM Tris-HCl pH 8.0, 150 mM NaCl, 5 mM MgCl2). To be noted: protein: recombinant, chain copies: 2, label: 5'-32P in EMSA, none in ITC, crystal, hairpin, L-shaped, 43 nt, stems P1 and P2.

Data set [8] deals with T2, TetR-Q38A. The data set is described as follows: EMSA; 10 mM Mg2+, 25 ug/ml yeast tRNA; exact Kd not determinable, weak binding detected; ITC: 20 mM potassium phosphate pH 7.4, 50 mM NaCl, 25 C; EMSA: 50 mM Tris-HCl pH 8.0, 10 mM MgCl2, 25 mM NaCl, 25 ug/ml yeast tRNA, room temperature; SEC buffer not given (preparative complex: 20 mM Tris-HCl pH 8.0, 150 mM NaCl, 5 mM MgCl2). The settings on record: protein: recombinant, chain copies: 2, label: 5'-32P in EMSA, none in ITC, crystal, hairpin, L-shaped, 43 nt, stems P1 and P2.

Data set [9] deals with T1, TetR(BD'). The experiment in a line: ITC; n=0.96 (TetR dimer per aptamer); ITC: 20 mM potassium phosphate pH 7.4, 50 mM NaCl, 25 C; EMSA: 50 mM Tris-HCl pH 8.0, 10 mM MgCl2, 25 mM NaCl, 25 ug/ml yeast tRNA, room temperature; SEC buffer not given (preparative complex: 20 mM Tris-HCl pH 8.0, 150 mM NaCl, 5 mM MgCl2). The settings on record: protein: recombinant, chain copies: 2, label: 5'-32P in EMSA, none in ITC, crystal, hairpin, L-shaped, 43 nt, stems P1 and P2.

Data set [10] deals with T1, TetR(BD'). The data set is described as follows: X-ray crystallography; 2.9 A; ITC: 20 mM potassium phosphate pH 7.4, 50 mM NaCl, 25 C; EMSA: 50 mM Tris-HCl pH 8.0, 10 mM MgCl2, 25 mM NaCl, 25 ug/ml yeast tRNA, room temperature; SEC buffer not given (preparative complex: 20 mM Tris-HCl pH 8.0, 150 mM NaCl, 5 mM MgCl2). The settings on record: protein: recombinant; chain copies: 2; hairpin, L-shaped, 39 nt, UUCG loop.

Some results are limits rather than exact numbers.

B1: tetO operator 25 bp (dsDNA)
DNA 1: CGCATTCTATCATTGATAGGATGCG
DNA 2: CGCATCCTATCAATGATAGAATGCG
Turning to B1, the Kd in data set [1] stood at 51.1 nM. The binding result is “binds” in [2], “no binding” in data set [3] and “no binding” in [4].

B2: TetR-binding aptamer K1 (structured_RNA)
RNA: GGCCGGAGAAUGUUAUGGCGCGAAAGCGCAGAGAAAACCGGUC
For B2, in data set [5], the binding result was “no binding”. Moreover, the Kd in data set [6] was 26.2 nM; in [7] it was 80 nM; in [8], greater than 500 nM; in data set [9] it was 5.6 nM.

B3: TetR-binding aptamer K2 (structured_RNA)
RNA: GGCGGAGAAUGUUAUGGCCUUCGGGCAGAGAAAACCGUC
As for B3, in data set [10], the binding result is recorded as “binds”.

The Kd is the equilibrium constant for the complex coming apart.
